Source: PMC5275738

Molecular target: SF3b145(598–631) fragment, tag-free recombinant (isotope-labeled) (human) (UniProt Q13435)
Test: NMR titration

Sequence of UniProt Q13435 (Q13435 598-631): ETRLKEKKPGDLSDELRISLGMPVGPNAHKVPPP

- Kd: 50 µM
Substance: human SF3b49 RRM1 (Pro5–Leu96), tag-free (from UniProt Q15427 5-96) (domain or fragment)
